Target: T1, recombinant GST-YOD1 (UniProt Q5VVQ6 1-348)
T1 construct: YOD1 (OTUD2, DUBA8); A GST-YOD1 truncation product is seen in the blots (asterisk)
Experiment: pull-down; GST-YOD1 (or GST) on Glutathione Sepharose 4B; candidate protein incubated 2 hr at 4°C in assay buffer with 0,5% Triton X100; Western blot or Coomassie
Conditions: both partners purified

Binder | binding result
HIS-TRAF6 MATH (346-504) (domain or fragment, UniProt Q9Y4K3 346-504, looked up, also called C-terminal HIS-TRAF6 MATH; TRAF6 MATH domain) AQQCNGIYIWKIGNFGMHLKCQEEEKPVVIHSPGFYTGKPGYKLCMRLHLQLPTAQRCANYISLFVHTMQGEYDSHLPWPFQGTIRLTILDQSEAPVRQNHEEIMDAKPELLAFQRPTIPRNPKGFGYVTFMHLEALRQRTFIKDDTLLVRCEVSTRFD | binds
HIS-TRAF6 CC-MATH (310-522) (domain or fragment, UniProt Q9Y4K3 310-522, looked up, TRAF6, coiled-coil and MATH domains, residues 310-522; also called HIS-TRAF6 310–522; TRAF6 C-terminus) DHQIRELTAKMETQSMYVSELKRTIRTLEDKVAEIEAQQCNGIYIWKIGNFGMHLKCQEEEKPVVIHSPGFYTGKPGYKLCMRLHLQLPTAQRCANYISLFVHTMQGEYDSHLPWPFQGTIRLTILDQSEAPVRQNHEEIMDAKPELLAFQRPTIPRNPKGFGYVTFMHLEALRQRTFIKDDTLLVRCEVSTRFDMGSLRREGFQPRSTDAGV | binds
